Experimental data from patent US20110312897A1 (ROCKEFELLER UNIVERSITY, published 2011).
Where no end group is shown, it is not given here.

Target: T1, cleaved H3 tail peptide (H3 22-37), methylated at K27 (not fully specified; also: K27 methylated, degree not given here, biotinylated, site not given here)
T1 construct: Mimics the H3 tail after cleavage between A21 and T22; also called cleaved peptide (amino acid residues 22-37)
T1 peptide: TKAARK(Me)SAPATGGVKK
Assay: fluorescence anisotropy

fold decrease of binding against the non-cleaved peptide (residues 18-37): 3 fold
B1: chromodomain of mouse CBX7 (other, UniProt Q8VDS3 1-70, looked up)
chain: MELSAIGEQVFAVESIRKKRVRKGKVEYLVKWKGWPPKYSTWEPEEHILDPRLVMAYEEKEERDRASGYR
notes: domain: chromodomain; also called Cbx7-CD protein; chromodomain of Pc (mouse CBX7)
